According to publication PMC3659105, “Profiling Epidermal Growth Factor Receptor and Heregulin Receptor 3 Heteromerization Using Receptor Tyrosine Kinase Heteromer Investigation Technology” (PLoS ONE, 2013):
Values belong to the compound of their own block, whether it stands above or below them.

What was measured:
HER3 = molecular target: T1, HER3 (Homo sapiens, UniProt P21860); test: Ligand-induced BRET between HER3/Rluc8 and Grb2/Venus (+ pcDNA3); assay type: cell-based
T1 construct: used to replace the C terminus of the full-length constructs (with or without Rluc8); host or cells: HEK293FT
Method: (§1) HEK293FT cells (Life Technologies) were maintained at 37°C in 5% CO2 and complete media (Dulbecco's modified Eagle's medium (DMEM) containing 0.3 mg/ml glutamine, 100 IU/ml penicillin and 100 µg/ml streptomycin (GIBCO BRL, Carlsbad, CA, USA)) supplemented with 10% foetal calf serum (FCS) and 400 µg/ml Geneticin (Gibco). Transient transfections were carried out 24 h after seeding about 550,000 cells/well of a 6-well plate. Genejuice (Merck, Kilsyth, Australia) transfection reagent was used according to the manufacturer's instructions. Cells were harvested with 0.05% Trypsin-EDTA (Gibco).
HEK293FT cells were transiently transfected with cDNA encoding a RTK fused to Rluc8 (RTK/Rluc8) and Grb2 fused to Venus (Grb2/Venus), along with a second RTK that was untagged with respect to BRET signaling, or empty vector (pcDNA3). […] BRET measurements were taken at 37°C using the VICTOR Light plate reader with Wallac 1420 software (PerkinElmer, Glen Waverley, Victoria, Australia). Filtered light emissions were sequentially measured at 400–475 and 520–540 nm. The BRET signal was calculated by subtracting the ratio of 520–540 nm emission over 400–475 nm emission for a vehicle-treated cell sample from the same ratio for a second aliquot of the same cells treated with agonist, as described previously, [35]. […]
Data were analyzed using Prism 5 graphing software (GraphPad, La Jolla, CA, USA). […]

EGFR-HER3 heteromer = molecular target: T2, EGFR-HER3 heteromer (Homo sapiens, UniProt P00533+P21860); test: RTK-HIT BRET between HER3/Rluc8 and Grb2/Venus with untagged EGFR co-expressed; assay type: cell-based; settings: HEK293FT cells, about 25 minutes of agonist stimulation
T2 construct: used to replace the C terminus of the full-length constructs (with or without Rluc8); host or cells: HEK293FT
Method: as §1
Following initial titration of cDNA amounts (data not shown), two ratios were selected for the heteromer combinations shown in Figure 2. […] BRET measurements were taken at 37°C using the VICTOR Light plate reader with Wallac 1420 software (PerkinElmer, Glen Waverley, Victoria, Australia). Filtered light emissions were sequentially measured at 400–475 and 520–540 nm. The BRET signal was calculated by subtracting the ratio of 520–540 nm emission over 400–475 nm emission for a vehicle-treated cell sample from the same ratio for a second aliquot of the same cells treated with agonist, as described previously, [35].

T1 sequence (P21860 20-1342): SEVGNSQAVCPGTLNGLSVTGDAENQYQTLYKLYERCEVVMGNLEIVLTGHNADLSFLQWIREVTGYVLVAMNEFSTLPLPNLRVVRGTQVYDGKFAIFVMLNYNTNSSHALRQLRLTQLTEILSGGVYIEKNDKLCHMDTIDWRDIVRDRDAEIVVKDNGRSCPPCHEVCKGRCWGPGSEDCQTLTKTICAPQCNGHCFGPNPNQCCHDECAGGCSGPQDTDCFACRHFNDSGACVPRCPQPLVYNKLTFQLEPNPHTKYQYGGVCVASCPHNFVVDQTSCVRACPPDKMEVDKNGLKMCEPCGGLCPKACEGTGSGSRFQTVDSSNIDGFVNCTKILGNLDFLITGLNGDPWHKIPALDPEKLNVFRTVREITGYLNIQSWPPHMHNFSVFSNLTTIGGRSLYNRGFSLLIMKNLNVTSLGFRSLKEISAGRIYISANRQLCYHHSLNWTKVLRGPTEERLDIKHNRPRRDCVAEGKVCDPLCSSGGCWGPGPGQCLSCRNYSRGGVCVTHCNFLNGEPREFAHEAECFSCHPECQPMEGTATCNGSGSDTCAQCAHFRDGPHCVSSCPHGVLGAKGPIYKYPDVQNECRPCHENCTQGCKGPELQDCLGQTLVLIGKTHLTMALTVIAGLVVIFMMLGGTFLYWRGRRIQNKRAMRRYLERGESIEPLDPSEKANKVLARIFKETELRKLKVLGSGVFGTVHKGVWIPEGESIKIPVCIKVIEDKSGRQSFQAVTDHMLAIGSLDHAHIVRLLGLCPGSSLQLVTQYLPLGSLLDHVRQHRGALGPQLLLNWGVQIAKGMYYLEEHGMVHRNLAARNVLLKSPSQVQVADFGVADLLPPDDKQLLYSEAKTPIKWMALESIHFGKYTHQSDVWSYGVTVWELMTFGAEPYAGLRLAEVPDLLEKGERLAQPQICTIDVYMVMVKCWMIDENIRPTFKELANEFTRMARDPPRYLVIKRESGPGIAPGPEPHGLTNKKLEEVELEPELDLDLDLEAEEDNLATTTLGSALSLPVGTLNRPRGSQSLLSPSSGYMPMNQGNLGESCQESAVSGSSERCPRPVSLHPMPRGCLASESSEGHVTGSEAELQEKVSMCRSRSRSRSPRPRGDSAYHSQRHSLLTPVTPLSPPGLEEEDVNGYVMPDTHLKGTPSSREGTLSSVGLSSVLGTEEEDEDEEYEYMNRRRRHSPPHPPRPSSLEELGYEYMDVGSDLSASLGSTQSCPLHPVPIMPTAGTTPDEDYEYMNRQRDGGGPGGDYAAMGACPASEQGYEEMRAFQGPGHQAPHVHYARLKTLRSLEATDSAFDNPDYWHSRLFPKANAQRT

effect on BRET (HER3; increasing concentrations of AG-1478, pre-treated or not with 20 nM EGF or HRG): no effect
Compound: COc1cc2ncnc(Nc3cccc(Cl)c3)c2cc1OC.Cl [AG-1478, AG-1478 hydrochloride, reference compound]

agonist-induced BRET signal (HER3; HER3/Rluc8 + Grb2/Venus without EGFR, 1 µM agonist, kinetic): no or little BRET signal
Compound: EGF: epidermal growth factor, ligand selective for EGFR

pEC50 (EGFR-HER3 heteromer): 7.46±0.14 (n = 5)
Compound: HRG: Heregulin-β1, ligand of HER3
